Source: US12698507B2, “Methods and compositions for conferring and/or enhancing herbicide tolerance using protoporphyrinogen IX oxidase of various cyanobacteria or variant thereof” (FarmHannong Co., Ltd., priority 2019, dated 2026)

Tested on: PPO-deficient BT3 E. coli (ΔPPO)
Assay: PPO-inhibiting herbicide tolerance test of PPO variants in E. coli (growth on herbicide-containing LB agar)
Type: cell-based
Conditions: CyPPO19 variants in BT3 (ΔPPO) E. coli; LB agar with 0 to 2,000 μM herbicide, 37° C., dark, 16-20 hours
Text: To enhance the PPO-inhibiting herbicide resistance of CyPPO19 and CyPPO18, PPO variant genes of the above example 2 were constructed. They were transformed to BT3 (ΔPPO) strain which is deficient of PPO activity and cultured in LB media with PPO-inhibiting herbicide, thereby examining whether growth of transformed BT3 was not inhibited.
BT3 competent cells were transformed with the pET303-CyPPO19 (wild type), pET303-CyPPO18 (wild type) plasmids, and those with a mutation(s) constructed (refer to example 2) via heat shock method, and were cultured in LB agar media containing ampicillin.
Single colony transformed with each CyPPO gene was cultured in 3 mL of LB broth (LPSS) containing ampicillin for more than 12 hours, and then was subcultured in LB broth until absorbance (OD600) reached 0.5 to 1. Then, it was diluted with LB broth to OD600=0.5. Again, the diluted solution was serially diluted 4 times by a factor of one tenth.
The LB agar media (LB 25 g/L, Bacto agar 12 g/L) containing ampicillin (100 μg/mL) and 0 to 2,000 μM of various herbicides were prepared. Herbicide solution stocks were all prepared in DMSO.
Then, 10 μL of each diluted solution of E. coli was dropped on the plate and cultured at 37° C. under dark for 16-20 hours. PPO-inhibiting herbicide resistance was evaluated with the extent of E. coli growth containing each gene was observed.
The extent of herbicide resistance was evaluated by the relative growth of variants to that of wild type, and listed in Tables 9 and 10 and FIGS. 3 to 32.
In Tables 9 and 10, the tolerance level of variants showing equivalent resistance to wild type was presented as ‘−’, and was done as ‘+’ per each 10-fold resistance until ‘+++++’ as maximal resistance.
FIGS. 3 to 30 and FIGS. 31 and 32 show the transformed E. coli growth result of CyPPO19 WT and its variants and CyPPO18 WT and its variants, respectively. The concentrations of herbicides were written above the photographs of tolerance test. A 10-fold dilution series of spots were shown from OD600=0.5 of the leftmost spot to OD600=0.00005 of the rightmost one.

Molecule | tolerance level relative to wild type, Carfentrazone | tolerance level relative to wild type, Flumioxazin | tolerance level relative to wild type, Fomesafen | tolerance level relative to wild type, Oxyfluorfen | tolerance level relative to wild type, Saflufenacil | tolerance level relative to wild type, Sulfentrazone | tolerance level relative to wild type, Tiafenacil
CyPPO19 R89A + V305M + F360T: variant of CyPPO19 PPO protein (SEQ ID NO: 1) (protein, Synthetic_PPO of Thermosynechococcus elongatus PKUAC-SCTE542 (comprising GenBank No. CP032152.1)) MSEVDVAIVGGGLSGLSLAWRLQQSAPQYSVVLLEASDRLGGNITTQTAEGFVWELGPNSFAPTPALLQLIAEVGLQSELIRGDRHLPAYIYWRGQLYPLQPTRPLALATSNLLSPWGKVRAALGALGFVPPYLGSGDESVNSFFRRHLGQEVAERLVAPFVSGVYAGDPQQLSAAAAFRRIAQLEKLGGGLIAGALHLRRQQAPKPKPPTSVQMRPGELGSFKEGLAALPRAIAQQLKAPIHLQTPVQEITPDPKGGYLLRSGEQTWRARSVVLATPAYQTAELVAPFQPAIARVLATIPYPTMACVVLAYPAGLGRSVRPGFGVLIPRSQGIRTLGTIWSSCLFPQRTPAGWQVFTSTIGGATDPDLASLSEEAIVQQVQQDLNRLLDLPAAKARLLGMKVWRRAIPQYMVGYPEQWQQVTHALSQTPGLFLCSNYAEGVALGDRVEHGNRTAAAVAAYLSGGQP | ++ (‘+’ per each 10-fold resistance) | +++++ (until ‘+++++’ as maximal resistance) | +++ (‘+’ per each 10-fold resistance) | +++ (‘+’ per each 10-fold resistance) | +++++ (until ‘+++++’ as maximal resistance) | +++++ (until ‘+++++’ as maximal resistance) | +++++ (until ‘+++++’ as maximal resistance)
CyPPO19 R89A + L327T + F360I: variant of CyPPO19 PPO protein (SEQ ID NO: 1) (protein, Synthetic_PPO of Thermosynechococcus elongatus PKUAC-SCTE542 (comprising GenBank No. CP032152.1)) MSEVDVAIVGGGLSGLSLAWRLQQSAPQYSVVLLEASDRLGGNITTQTAEGFVWELGPNSFAPTPALLQLIAEVGLQSELIRGDRHLPAYIYWRGQLYPLQPTRPLALATSNLLSPWGKVRAALGALGFVPPYLGSGDESVNSFFRRHLGQEVAERLVAPFVSGVYAGDPQQLSAAAAFRRIAQLEKLGGGLIAGALHLRRQQAPKPKPPTSVQMRPGELGSFKEGLAALPRAIAQQLKAPIHLQTPVQEITPDPKGGYLLRSGEQTWRARSVVLATPAYQTAELVAPFQPAIARVLATIPYPTVACVVLAYPAGLGRSVRPGFGVTIPRSQGIRTLGTIWSSCLFPQRTPAGWQVFTSIIGGATDPDLASLSEEAIVQQVQQDLNRLLDLPAAKARLLGMKVWRRAIPQYMVGYPEQWQQVTHALSQTPGLFLCSNYAEGVALGDRVEHGNRTAAAVAAYLSGGQP | + (‘+’ per each 10-fold resistance) | ++++ (‘+’ per each 10-fold resistance) | ++ (‘+’ per each 10-fold resistance) | + (‘+’ per each 10-fold resistance) | ++ (‘+’ per each 10-fold resistance) | +++ (‘+’ per each 10-fold resistance) | ++++ (‘+’ per each 10-fold resistance)
CyPPO19 R89A + L327T + F360M: variant of CyPPO19 PPO protein (SEQ ID NO: 1) (protein, Synthetic_PPO of Thermosynechococcus elongatus PKUAC-SCTE542 (comprising GenBank No. CP032152.1)) MSEVDVAIVGGGLSGLSLAWRLQQSAPQYSVVLLEASDRLGGNITTQTAEGFVWELGPNSFAPTPALLQLIAEVGLQSELIRGDRHLPAYIYWRGQLYPLQPTRPLALATSNLLSPWGKVRAALGALGFVPPYLGSGDESVNSFFRRHLGQEVAERLVAPFVSGVYAGDPQQLSAAAAFRRIAQLEKLGGGLIAGALHLRRQQAPKPKPPTSVQMRPGELGSFKEGLAALPRAIAQQLKAPIHLQTPVQEITPDPKGGYLLRSGEQTWRARSVVLATPAYQTAELVAPFQPAIARVLATIPYPTVACVVLAYPAGLGRSVRPGFGVTIPRSQGIRTLGTIWSSCLFPQRTPAGWQVFTSMIGGATDPDLASLSEEAIVQQVQQDLNRLLDLPAAKARLLGMKVWRRAIPQYMVGYPEQWQQVTHALSQTPGLFLCSNYAEGVALGDRVEHGNRTAAAVAAYLSGGQP | + (‘+’ per each 10-fold resistance) | ++++ (‘+’ per each 10-fold resistance) | +++ (‘+’ per each 10-fold resistance) | ++ (‘+’ per each 10-fold resistance) | ++ (‘+’ per each 10-fold resistance) | ++ (‘+’ per each 10-fold resistance) | +++ (‘+’ per each 10-fold resistance)
CyPPO19 R89A + L327T + F360T: variant of CyPPO19 PPO protein (SEQ ID NO: 1) (protein, Synthetic_PPO of Thermosynechococcus elongatus PKUAC-SCTE542 (comprising GenBank No. CP032152.1)) MSEVDVAIVGGGLSGLSLAWRLQQSAPQYSVVLLEASDRLGGNITTQTAEGFVWELGPNSFAPTPALLQLIAEVGLQSELIRGDRHLPAYIYWRGQLYPLQPTRPLALATSNLLSPWGKVRAALGALGFVPPYLGSGDESVNSFFRRHLGQEVAERLVAPFVSGVYAGDPQQLSAAAAFRRIAQLEKLGGGLIAGALHLRRQQAPKPKPPTSVQMRPGELGSFKEGLAALPRAIAQQLKAPIHLQTPVQEITPDPKGGYLLRSGEQTWRARSVVLATPAYQTAELVAPFQPAIARVLATIPYPTVACVVLAYPAGLGRSVRPGFGVTIPRSQGIRTLGTIWSSCLFPQRTPAGWQVFTSTIGGATDPDLASLSEEAIVQQVQQDLNRLLDLPAAKARLLGMKVWRRAIPQYMVGYPEQWQQVTHALSQTPGLFLCSNYAEGVALGDRVEHGNRTAAAVAAYLSGGQP | + (‘+’ per each 10-fold resistance) | +++++ (until ‘+++++’ as maximal resistance) | +++++ (until ‘+++++’ as maximal resistance) | +++ (‘+’ per each 10-fold resistance) | +++++ (until ‘+++++’ as maximal resistance) | +++++ (until ‘+++++’ as maximal resistance) | +++++ (until ‘+++++’ as maximal resistance)
